Data as given in ChEMBL document CHEMBL4304745, “On the Process of Discovering Leads That Target the Heparin-Binding Site of Neutrophil Elastase in the Sputum of Cystic Fibrosis Patients” (J Med Chem, 2019).

Key:
Neutrophil elastase = biological target: T1, Neutrophil elastase (Homo sapiens, UniProt P08246); test: Inhibition of human neutrophil elastase using S1384 as substrate preincubated for 5 mins followed by substrate addition
T1 sequence (P08246 whole entry): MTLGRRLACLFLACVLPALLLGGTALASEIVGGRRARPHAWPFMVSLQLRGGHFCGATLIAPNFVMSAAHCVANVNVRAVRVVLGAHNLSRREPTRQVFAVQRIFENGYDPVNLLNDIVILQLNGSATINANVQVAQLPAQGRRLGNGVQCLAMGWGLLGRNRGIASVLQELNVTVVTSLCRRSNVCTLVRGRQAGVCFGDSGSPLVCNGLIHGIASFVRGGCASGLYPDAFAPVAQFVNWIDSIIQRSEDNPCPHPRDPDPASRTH

[1] = compound: O=c1cc(-c2ccc(OS(=O)(=O)O)cc2)oc2cc(OS(=O)(=O)O)cc(OCc3cccc(COc4cc(OS(=O)(=O)O)cc5oc(-c6ccc(OS(=O)(=O)O)cc6)cc(=O)c45)n3)c12; test: Mixed type inhibition of human neutrophil elastase assessed as Km for substrate at 750 uM using varying levels of S1384 as substrate by Michaelis-Menten plot analysis (reference value: 650 +/- 24 uM)
[2] = compound: O=c1cc(-c2ccc(OS(=O)(=O)O)cc2)oc2cc(OS(=O)(=O)O)cc(OCc3cccc(COc4cc(OS(=O)(=O)O)cc5oc(-c6ccc(OS(=O)(=O)O)cc6)cc(=O)c45)n3)c12; test: Mixed type inhibition of human neutrophil elastase assessed as Vmax for substrate at 1000 uM using varying levels of S1384 as substrate by Michaelis-Menten plot analysis (reference value: 40.1 +/- 0.5 mAU/min)
[3] = compound: O=c1cc(-c2ccc(OS(=O)(=O)O)cc2)oc2cc(OS(=O)(=O)O)cc(OCc3cccc(COc4cc(OS(=O)(=O)O)cc5oc(-c6ccc(OS(=O)(=O)O)cc6)cc(=O)c45)n3)c12; test: Mixed type inhibition of human neutrophil elastase assessed as Vmax for substrate at 750 uM using varying levels of S1384 as substrate by Michaelis-Menten plot analysis (reference value: 40.1 +/- 0.5 mAU/min)
[4] = compound: O=c1cc(-c2ccc(OS(=O)(=O)O)cc2)oc2cc(OS(=O)(=O)O)cc(OCc3cccc(COc4cc(OS(=O)(=O)O)cc5oc(-c6ccc(OS(=O)(=O)O)cc6)cc(=O)c45)n3)c12; test: Mixed type inhibition of human neutrophil elastase assessed as Vmax for substrate at 500 uM using varying levels of S1384 as substrate by Michaelis-Menten plot analysis (reference value: 40.1 +/- 0.5 mAU/min)
[5] = compound: O=c1cc(-c2ccc(OS(=O)(=O)O)cc2)oc2cc(OS(=O)(=O)O)cc(OCc3cccc(COc4cc(OS(=O)(=O)O)cc5oc(-c6ccc(OS(=O)(=O)O)cc6)cc(=O)c45)n3)c12; test: Mixed type inhibition of human neutrophil elastase assessed as Km for substrate at 250 uM using varying levels of S1384 as substrate by Michaelis-Menten plot analysis (reference value: 650 +/- 24 uM)
[6] = compound: O=c1cc(-c2ccc(OS(=O)(=O)O)cc2)oc2cc(OS(=O)(=O)O)cc(OCc3cccc(COc4cc(OS(=O)(=O)O)cc5oc(-c6ccc(OS(=O)(=O)O)cc6)cc(=O)c45)n3)c12; test: Mixed type inhibition of human neutrophil elastase assessed as Vmax for substrate at 250 uM using varying levels of S1384 as substrate by Michaelis-Menten plot analysis (reference value: 40.1 +/- 0.5 mAU/min)
[7] = compound: O=c1cc(-c2ccc(OS(=O)(=O)O)cc2)oc2cc(OS(=O)(=O)O)cc(OCc3cccc(COc4cc(OS(=O)(=O)O)cc5oc(-c6ccc(OS(=O)(=O)O)cc6)cc(=O)c45)n3)c12; test: Mixed type inhibition of human neutrophil elastase assessed as Km for substrate at 1000 uM using varying levels of S1384 as substrate by Michaelis-Menten plot analysis (reference value: 650 +/- 24 uM)
[8] = compound: O=c1cc(-c2ccc(OS(=O)(=O)O)cc2)oc2cc(OS(=O)(=O)O)cc(OCc3cccc(COc4cc(OS(=O)(=O)O)cc5oc(-c6ccc(OS(=O)(=O)O)cc6)cc(=O)c45)n3)c12; test: Mixed type inhibition of human neutrophil elastase assessed as Km for substrate at 500 uM using varying levels of S1384 as substrate by Michaelis-Menten plot analysis (reference value: 650 +/- 24 uM)

## O=c1cc(-c2ccc(OS(=O)(=O)O)cc2)oc2cc(OS(=O)(=O)O)cc(OCc3cccc(COc4cc(OS(=O)(=O)O)cc5oc(-c6ccc(OS(=O)(=O)O)cc6)cc(=O)c45)c3)c12
Neutrophil elastase
  IC50: 157 µM

## O=c1c(OS(=O)(=O)O)c(-c2ccc(OS(=O)(=O)O)c(OS(=O)(=O)O)c2)oc2cc(OS(=O)(=O)O)cc(OCCOc3cc(-c4oc5cc(OS(=O)(=O)O)cc(OCCOc6cc(OS(=O)(=O)O)cc7oc(-c8ccc(OS(=O)(=O)O)c(OS(=O)(=O)O)c8)c(OS(=O)(=O)O)c(=O)c67)c5c(=O)c4OS(=O)(=O)O)ccc3OS(=O)(=O)O)c12
Neutrophil elastase
  IC50: 0.14 µM

B1: Neutrophil elastase (Homo sapiens), P08246 (protein)
chain: MTLGRRLACLFLACVLPALLLGGTALASEIVGGRRARPHAWPFMVSLQLRGGHFCGATLIAPNFVMSAAHCVANVNVRAVRVVLGAHNLSRREPTRQVFAVQRIFENGYDPVNLLNDIVILQLNGSATINANVQVAQLPAQGRRLGNGVQCLAMGWGLLGRNRGIASVLQELNVTVVTSLCRRSNVCTLVRGRQAGVCFGDSGSPLVCNGLIHGIASFVRGGCASGLYPDAFAPVAQFVNWIDSIIQRSEDNPCPHPRDPDPASRTH
[1]
  Km: 1220 µM
[2]
  Vmax: 15.3 mAU/min
[3]
  Vmax: 19 mAU/min
[4]
  Vmax: 30.3 mAU/min
[5]
  Km: 908 µM
[6]
  Vmax: 38.6 mAU/min
[7]
  Km: 1670 µM
[8]
  Km: 788 µM
